Data published in patent publication US20150056162A1 (published 2015).
One block for each binder: values may come before it.

How the values were obtained:
[1] = target: T1, IL-13Rα2, biotinylated (human, UniProt Q14627 27-343, biotinylated (site not stated)); test: SPR; equilibrium
T1 chain: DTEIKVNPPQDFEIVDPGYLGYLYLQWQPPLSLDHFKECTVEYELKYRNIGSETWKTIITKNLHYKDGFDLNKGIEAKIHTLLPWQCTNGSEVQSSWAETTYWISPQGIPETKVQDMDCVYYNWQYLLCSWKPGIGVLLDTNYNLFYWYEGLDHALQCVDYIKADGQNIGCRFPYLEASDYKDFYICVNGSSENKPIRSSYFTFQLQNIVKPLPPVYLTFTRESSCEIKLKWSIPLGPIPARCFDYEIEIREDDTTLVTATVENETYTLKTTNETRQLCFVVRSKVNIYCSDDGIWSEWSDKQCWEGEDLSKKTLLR

[2] = target: T1, IL-13Rα2, biotinylated; test: SPR; kinetic
[3] = target: A6; test: SPR; kinetic
[4] = target: C12; test: SPR; kinetic
[5] = target: C10; test: SPR; kinetic
[6] = target: C3; test: SPR; kinetic
[7] = target: A7; test: SPR; kinetic
[8] = target: A8; test: SPR; kinetic
[9] = target: C7; test: SPR; kinetic
[10] = target: C9; test: SPR; kinetic
[11] = target: C2; test: SPR; kinetic
[12] = target: B6; test: SPR; equilibrium
[13] = target: T1, IL-13Rα2, biotinylated; test: SPR; kinetic
[14] = target: B6; test: SPR; kinetic
[15] = target: C12; test: SPR; equilibrium
[16] = target: C10; test: SPR; equilibrium
[17] = target: C3; test: SPR; equilibrium
[18] = target: C7; test: SPR; equilibrium
[19] = target: C9; test: SPR; equilibrium
[20] = target: C2; test: SPR; equilibrium

Kd [3]: 0.267 nM
Kd [4]: 0.053 nM
Kd [5]: 5 nM
Kd [6]: 0.379 nM
Kd [7]: 0.218 nM
Kd [8]: 0.263 nM
Kd [9]: 0.272 nM
Kd [10]: 0.259 nM
Kd [11]: 0.025 nM
Kd [12]: 53 nM
B5: IL-13Rα2 (receptor)
chain: DTEIKVNPPQDFEIVDPGYLGYLYLQWQPPLSLDHFKECTVEYELKYRNIGSETWKTIITKNLHYKDGFDLNKGIEAKIHTLLPWQCTNGSEVQSSWAETTYWISPQGIPETKVQDMDCVYYNWQYLLCSWKPGIGVLLDTNYNLFYWYEGLDHALQCVDYIKADGQNIGCRFPYLEASDYKDFYICVNGSSENKPIRSSYFTFQLQNIVKPLPPVYLTFTRESSCEIKLKWSIPLGPIPARCFDYEIEIREDDTTLVTATVENETYTLKTTNETRQLCFVVRSKVNIYCSDDGIWSEWSDKQCWEGEDLSKKTLLR
modifications: biotinylated (site not stated)

Kd [13]: 0.391 nM
B6: IL-13 variant DN (ligand)
chain: PGPVPPSTAVRALIEELINITQNQKAPLCNGSMVWSINRTAGMYCAALESLINVSGCSAIEKTQDMLSGFCPHKVSAGQFSSLHVRSSKIEVAQFVKDLLFHLRTLFREGQFNHHHHHH

Kd [2]: 0.0001 nM
B7: IL-13 variant C11 (ligand)
chain: PGPVPPSTAHRELIEELVNITQNQKAPLCNGSMVWSINLTAGMYCAALESLINVSGCSAIEKTQRMLSGFCPHKVSAGQFSSLHVTGRKIEVAQFVKDLLLHLKKLFKEGQFNHHHHHH

Kd [2]: 0.003 nM
B8: IL-13 variant D7 (ligand)
chain: PGPVPPSTAARELIEELFNITQNQKAPLCNGSMVWSINLTAGMYCAALESLINVSGCSAIEKTKRMLSGFCPHKVSAGQFPSLHVKKTRIEVAQFVKDLLIHLRKLFKEGQFNHHHHHH

Kd [2]: 0.393 nM
B9: IL-13 variant C4 (ligand)
chain: PGPVPPSTAVRELIEELVNITQNQKAPLCNGSMVWSINLTAGMYCAALESLINVSGCSAIEKTQRMLSGFCPHKVSAGQFSSLHVRDTRIEVAQFVKDLLNHLKELFTEGQFNHHHHHH

Kd [3]: 1.9 nM
Kd [7]: 1.18 nM
Kd [8]: 2.06 nM
Kd [14]: 5.9 nM
Kd [15]: 15000 nM
Kd [16]: 264 nM
Kd [17]: 16000 nM
Kd [18]: 35000 nM
Kd [19]: 31000 nM
Kd [20]: 4000 nM
B10: IL-13Rα1 (receptor)
chain: GGGGAAPTETQPPVTNLSVSVENLCTVIWTWNPPEGASSNCSLWYFSHFGDKQDKKIAPETRRSIEVPLNERICLQVGSQCSTNESEKPSILVEKCISPPEGDPESAVTELQCIWHNLSYMKCSWLPGRNTSPDTNYTLYYWHRSLEKIHQCENIFREGQYFGCSFDLTKVKDSSFEQHSVQIMVKDNAGKIKPSFNIVPLTSRVKPDPPHIKNLSFHNDDLYVQWENPQNFISRCLFYEVEVNNSQTETHNVFYVQEAKCENPEFERNVENTSCFMVPGVLPDTLNTVRIRVKTNKLCYEDDKLWSNWSLNDIFEAQKIEWHEHHHHHH
modifications: biotin on the C-terminal biotin acceptor peptide (coexpressed with BirA ligase)

Second part, the binder before the results:

B1: IL-13 variant B4 (ligand)
chain: PGPVPPSTALSELIEELINITQNQKAPLCNGSMVWSINPTAGMYCAALESLINVSGCSAIEKTQRMLSGFCPHKVAAGQFSSLHDKGSMIEVAQFVKDLLYHLRTLFREGQFNHHHHHH
Kd [1]: 108 nM

B2: IL-13 variant B2 (ligand)
chain: PGPVPPSTALRELIEELINITQNEKAPLCNGSMVWSINLTAGIYCAALESLINVSGCSAIEKTQRMLSGFCPHKVSAGQFSSLHVTGSKIEVAQFVKDLLYHLRALFREGQFNHHHHHH
Kd [2]: 1.5 nM

B3: IL-13 variant A5 (ligand)
chain: PGPVPPSTALIELIEELINITQNQKAPLCNGSMVWSINLTAGIYCAALESLINVSGCSAIEKTQRMLSGFCPHKVSAGQFSSLHVKGSKIEVAQFVKDLLHHLRALMREGQFNHHHHHH
Kd [1]: 50 nM

B4: IL-13 variant A11 (ligand)
chain: PGPVPPSTAVRELIEELINITQNQKAPLCNGSMVWSINRTAGMYCAALESLINVSGCSAIEKTQRMLSGFCPHKVSAGQFSSLHVRSSKIEVAQFVKDLLFHLRTLFREGQFNHHHHHH
Kd [2]: 0.391 nM
